# According to PMC7862611, “Ribosome-bound Get4/5 facilitates the capture of tail-anchored proteins by Sgt2 in yeast” (Nature Communications, 2021):
# T1: RNCs carrying the most N-terminal 100 residues of Pgk1 as a nascent chain (yeast (S. cerevisiae) | S. cerevisiae) (UniProt P00560)
# T1 sequence (P00560 1-100, looked up): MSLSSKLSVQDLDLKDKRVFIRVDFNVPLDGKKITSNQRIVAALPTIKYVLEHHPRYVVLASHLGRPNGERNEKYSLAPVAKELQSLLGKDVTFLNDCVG
# Tests used:
# [1] = biological target: T1, RNCs carrying the most N-terminal 100 residues of Pgk1 as a nascent chain (yeast (S. cerevisiae) | S. cerevisiae); test: pull-down; FLAG-tag pull-down of RNCs with N-terminally FLAG-tagged nascent chains made in yeast translation extracts (wild type, Δsrp54, without Get4/5, without Sgt2 or Get3; with or without 2 µM purified His6Get4/Get5), RNCs first pelleted through a sucrose cushion; immunoblot
# [2] = biological target: released Sec22 (yeast (S. cerevisiae)) (UniProt P22214); test: pull-down; FLAG-tag pull-down of radiolabelled ribosome-released FLAG-Sec22 from yeast translation reactions (wild type, Δget3 with or without 2 µM His6Get4/Get5, Δget3Δget4Δget5); immunoblot
# 80S ribosome = 80S ribosome (S. cerevisiae); test: fluorescence polarisation; fluorescence anisotropy; Get4/5-Atto390 held at 20 nM, 80S ribosomes added to 20–500 nM; 20 °C; 50 mM Tris/HCl pH 7.5, 70 mM NH4Cl, 30 mM KCl, 7 mM MgCl2; one site saturation binding fit; conditions: both partners purified
# Sequence of released Sec22 (yeast (S. cerevisiae)) (P22214 whole entry): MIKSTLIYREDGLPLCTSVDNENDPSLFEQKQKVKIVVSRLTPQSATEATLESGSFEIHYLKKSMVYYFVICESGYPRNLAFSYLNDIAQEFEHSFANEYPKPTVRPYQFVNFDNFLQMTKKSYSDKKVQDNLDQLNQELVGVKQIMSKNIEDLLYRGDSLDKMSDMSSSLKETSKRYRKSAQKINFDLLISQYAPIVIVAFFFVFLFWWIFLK
Molecule,percent associated with RNCs [1] [%],also measured
Get5 (from UniProt Q12285 1-212) (natural protein),2,–
Get4 (from UniProt Q12125 1-312) (natural protein),2,–
Sgt2 (from UniProt Q12118 1-346) (natural protein),–,"fold change of binding with added m3 against no addition, Δget3 extract [2]: > 2 fold"
"signal recognition particle (SRP), followed by its 54 kDa subunit Srp54 (natural protein) MVLADLGKRINSAVNNAISNTQDDFTTSVDVMLKGIVTALLESDVNIALVSKLRNNIRSQLLSENRSEKSTTNAQTKKLIQKTVFDELCKLVTCEGSEEKAFVPKKRKTNIIMFVGLQGSGKTTSCTKLAVYYSKRGFKVGLVCADTFRAGAFDQLKQNAIRARIPFYGSYTETDPAKVAEEGINKFKKEKFDIIIVDTSGRHHQEEELFQEMIEISNVIKPNQTIMVLDASIGQAAEQQSKAFKESSDFGAIILTKMDGHARGGGAISAVAATNTPIIFIGTGEHIHDLEKFSPKSFISKLLGIGDIESLFEQLQTVSNKEDAKATMENIQKGKFTLLDFKKQMQTIMKMGPLSNIAQMIPGMSNMMNQVGEEETSQKMKKMVYVLDSMTKEELESDGRMFIEEPTRMVRVAKGSGTSVFEVEMILMQQQMMARMAQTATQQQPGAPGANARMPGMPNMPGMPNMPGMPNMPGMPKVTPQMMQQAQQKLKQNPGLMQNMMNMFGGGMGGGMGGGMPDMNEMMKMMQDPQMQQMAKQFGMG",0.3,–
"Get4/5-Atto390 (complex, yeast (S. cerevisiae), ATTO-390-maleimide on the surface-exposed cysteine of the two cysteines present in Get4 (C177, 255), Get4, yeast; Get5, yeast; also called Get4/His6Get5; Get4_(2)Get5_(2) complex; copies: 2 + 2) chain 1: MVPAESNAVQAKLAKTLQRFENKIKAGDYYEAHQTLRTIANRYVRSKSYEHAIELISQGALSFLKAKQGGSGTDLIFYLLEVYDLAEVKVDDISVARLVRLIAELDPSEPNLKDVITGMNNWSIKFSEYKFGDPYLHNTIGSKLLEGDFVYEAERYFMLGTHDSMIKYVDLLWDWLCQVDDIEDSTVAEFFSRLVFNYLFISNISFAHESKDIFLERFIEKFHPKYEKIDKNGYEIVFFEDYSDLNFLQLLLITCQTKDKSYFLNLKNHYLDFSQAYKSELEFLGQEYFNIVAPKQTNFLQDMMSGFLGGSK chain 2: MSTSASGPEHEFVSKFLTLATLTEPKLPKSYTKPLKDVTNLGVPLPTLKYKYKQNRAKKLKLHQDQQGQDNAAVHLTLKKIQAPKFSIEHDFSPSDTILQIKQHLISEEKASHISEIKLLLKGKVLHDNLFLSDLKVTPANSTITVMIKPNPTISKEPEAEKSTNSPAPAPPQELTVPWDDIEALLKNNFENDQAAVRQVMERLQKGWSLAK",–,Kd (80S ribosome): 110 nM
